Results as given in the supplement of paper PMC9233669.
This sample holds only a part of the variants without activity.

Experiments:
biotinyl-Trp-oxazolone = assay: self-aminoacylation, catalytic enhancement (BWO) (fold over background); higher = more active; k-Seq, kA / k0A0; sequences stand for … in GGGAAUGGAUCCACAUCUACGAAUUC…UUCACUGCAGACUUGACGAAGCUG
How it was run: (§1)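 Each biotinyl-aminoacyl-oxazolone, at 2–1250 μM, was incubated with mutagenized RNA pools (0.43 μM) carrying a 21-nt variable region. The 50 μL reactions contained HEPES/NaCl/KCl/MgCl2/CaCl2 buffer with 5% acetonitrile at pH 6.9–7.0 and ran for 90 minutes at room temperature. After streptavidin capture, RNA was measured by qPCR in triplicate and by Illumina sequencing, and catalytic enhancement was calculated as median kA over the uncatalyzed rate from a pseudo-first-order fit of per-sequence fraction reacted.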

biotinyl-Leu-oxazolone = assay: self-aminoacylation, catalytic enhancement (BLO) (fold over background); higher = more active; k-Seq, kA / k0A0; sequences stand for … in GGGAAUGGAUCCACAUCUACGAAUUC…UUCACUGCAGACUUGACGAAGCUG
How it was run: as §1

biotinyl-Phe-oxazolone = assay: self-aminoacylation, catalytic enhancement (BFO) (fold over background); higher = more active; k-Seq, kA / k0A0; sequences stand for … in GGGAAUGGAUCCACAUCUACGAAUUC…UUCACUGCAGACUUGACGAAGCUG
How it was run: as §1

CGUCUUCAAACAAUCGGUCUG [Fam1A.1 aminoacylation ribozyme variant]
self-aminoacylation (biotinyl-Trp-oxazolone): 33.5
self-aminoacylation (biotinyl-Leu-oxazolone): 2.22
self-aminoacylation (biotinyl-Phe-oxazolone): 79

AUUCACCUAGCUCCUCGGGUG [Fam2.2 aminoacylation ribozyme variant]
self-aminoacylation (biotinyl-Leu-oxazolone): 2.24
self-aminoacylation (biotinyl-Phe-oxazolone): 5.19

CCACUUCAAACAAUCGGUCGG [Fam1A.1 aminoacylation ribozyme variant]
self-aminoacylation (biotinyl-Trp-oxazolone): 33.2
self-aminoacylation (biotinyl-Leu-oxazolone): 2.54
self-aminoacylation (biotinyl-Phe-oxazolone): 99.5

AAGCUGGCUAAUAGUCGCAAG [Fam3.1 aminoacylation ribozyme variant]
self-aminoacylation (biotinyl-Trp-oxazolone): 2.08
self-aminoacylation (biotinyl-Leu-oxazolone): 2.68
self-aminoacylation (biotinyl-Phe-oxazolone): 3.61

AAGCUUGCUAAUAGUCGCAUG [Fam3.1 aminoacylation ribozyme variant]
self-aminoacylation (biotinyl-Leu-oxazolone): 2.07
self-aminoacylation (biotinyl-Phe-oxazolone): 3.98

ACACGCUUCAAGCAAUCGGUC [Fam1B.1 aminoacylation ribozyme variant]
self-aminoacylation (biotinyl-Trp-oxazolone): 38.8
self-aminoacylation (biotinyl-Leu-oxazolone): 2.68
self-aminoacylation (biotinyl-Phe-oxazolone): 63.7

CCCCACUUCAAGUAAUCGGUC [Fam1B.1 aminoacylation ribozyme variant]
self-aminoacylation (biotinyl-Trp-oxazolone): 14.2
self-aminoacylation (biotinyl-Leu-oxazolone): 2.08
self-aminoacylation (biotinyl-Phe-oxazolone): 15.4

AUUCACCGAGGUCAUCAGGUG [Fam2.2 aminoacylation ribozyme variant]
self-aminoacylation (biotinyl-Leu-oxazolone): 2.03
self-aminoacylation (biotinyl-Phe-oxazolone): 2.42

GAGUUUGCUAAUAGUCGCAGG [Fam3.1 aminoacylation ribozyme variant]
self-aminoacylation (biotinyl-Trp-oxazolone): 3.34
self-aminoacylation (biotinyl-Leu-oxazolone): 2.11
self-aminoacylation (biotinyl-Phe-oxazolone): 6.69

AUUCACAUAGGUCAUCGAGUG [Fam2.2 aminoacylation ribozyme variant]
self-aminoacylation (biotinyl-Trp-oxazolone): 2.2
self-aminoacylation (biotinyl-Leu-oxazolone): 2.69
self-aminoacylation (biotinyl-Phe-oxazolone): 3.08

AUUCACCUGGGUCAUAGGGUG [Fam2.2 aminoacylation ribozyme variant]
self-aminoacylation (biotinyl-Leu-oxazolone): 2.23
self-aminoacylation (biotinyl-Phe-oxazolone): 6.22

CAACGCUUCAAGCAAUCGGUC [Fam1B.1 aminoacylation ribozyme variant]
self-aminoacylation (biotinyl-Trp-oxazolone): 33.7
self-aminoacylation (biotinyl-Leu-oxazolone): 2.08
self-aminoacylation (biotinyl-Phe-oxazolone): 58.6

CCAGACUUCAAACAAUCGGUC [Fam1B.1 aminoacylation ribozyme variant]
self-aminoacylation (biotinyl-Trp-oxazolone): 40.2
self-aminoacylation (biotinyl-Leu-oxazolone): 2.19
self-aminoacylation (biotinyl-Phe-oxazolone): 85.8

GUACUUCAAACAAUCGGUCGG [Fam1A.1 aminoacylation ribozyme variant]
self-aminoacylation (biotinyl-Trp-oxazolone): 15.8
self-aminoacylation (biotinyl-Leu-oxazolone): 2.3
self-aminoacylation (biotinyl-Phe-oxazolone): 37.8

AUUACCCUGGCCGUCGAGUGA [Fam2.1 aminoacylation ribozyme variant]
self-aminoacylation (biotinyl-Trp-oxazolone): 2.4
self-aminoacylation (biotinyl-Phe-oxazolone): 2.1

CUAGUUCAAACAAUCAGUCUG [Fam1A.1 aminoacylation ribozyme variant]
self-aminoacylation (biotinyl-Trp-oxazolone): 2.15
self-aminoacylation (biotinyl-Phe-oxazolone): 5.02

CCACUCUUCAACCAAUCGGUC [Fam1B.1 aminoacylation ribozyme variant]
self-aminoacylation (biotinyl-Trp-oxazolone): 27
self-aminoacylation (biotinyl-Phe-oxazolone): 45.7

CUGCUCCAAACAAUCGGUCUG [Fam1A.1 aminoacylation ribozyme variant]
self-aminoacylation (biotinyl-Trp-oxazolone): 20.3
self-aminoacylation (biotinyl-Phe-oxazolone): 27

CCGCACUUCAAGCAAUCGGUC [Fam1B.1 aminoacylation ribozyme variant]
self-aminoacylation (biotinyl-Trp-oxazolone): 36.5
self-aminoacylation (biotinyl-Leu-oxazolone): 2.01
self-aminoacylation (biotinyl-Phe-oxazolone): 61.6

CGACUUCAAUCAAUCGGUCUG [Fam1A.1 aminoacylation ribozyme variant]
self-aminoacylation (biotinyl-Trp-oxazolone): 24.3
self-aminoacylation (biotinyl-Leu-oxazolone): 2.21
self-aminoacylation (biotinyl-Phe-oxazolone): 42.2

CCACCUCAAACAAUCGGUCUG [Fam1A.1 aminoacylation ribozyme variant]
self-aminoacylation (biotinyl-Trp-oxazolone): 4.25
self-aminoacylation (biotinyl-Phe-oxazolone): 4.25

AUUCACCUAGGUUAUCGGGUU [Fam2.2 aminoacylation ribozyme variant]
self-aminoacylation (biotinyl-Trp-oxazolone): 2.04
self-aminoacylation (biotinyl-Phe-oxazolone): 5.07

CUACUUCAACCAAUCGGUCAG [Fam1A.1 aminoacylation ribozyme variant]
self-aminoacylation (biotinyl-Trp-oxazolone): 3.33
self-aminoacylation (biotinyl-Phe-oxazolone): 6.18

CCCUACUUCAAGCAAUCGGUC [Fam1B.1 aminoacylation ribozyme variant]
self-aminoacylation (biotinyl-Trp-oxazolone): 33.8
self-aminoacylation (biotinyl-Phe-oxazolone): 73.5

CUGCUUCAAUCAAUCGGUCUG [Fam1A.1 aminoacylation ribozyme variant]
self-aminoacylation (biotinyl-Trp-oxazolone): 26.8
self-aminoacylation (biotinyl-Phe-oxazolone): 44.2

AUAAUUCAAACAAUCGGUCUG [Fam1A.1 aminoacylation ribozyme variant]
self-aminoacylation (biotinyl-Trp-oxazolone): 2.97
self-aminoacylation (biotinyl-Phe-oxazolone): 4.88

CCACAGUUCAAGCAAUCGGUC [Fam1B.1 aminoacylation ribozyme variant]
self-aminoacylation (biotinyl-Trp-oxazolone): 3.69
self-aminoacylation (biotinyl-Phe-oxazolone): 5.12

CUCCUUCAAACAAUCGGUCUU [Fam1A.1 aminoacylation ribozyme variant]
self-aminoacylation (biotinyl-Trp-oxazolone): 16.3
self-aminoacylation (biotinyl-Phe-oxazolone): 25.4

CUACACUUCAAGAAAUCGGUC [Fam1B.1 aminoacylation ribozyme variant]
self-aminoacylation (biotinyl-Trp-oxazolone): 5.31
self-aminoacylation (biotinyl-Phe-oxazolone): 8.72

CUACUUCAAACAAUCGGGCUG [Fam1A.1 aminoacylation ribozyme variant]
self-aminoacylation (biotinyl-Trp-oxazolone): 9.43
self-aminoacylation (biotinyl-Phe-oxazolone): 13.2

AAGUGUGCUAAUAGUCGGAAG [Fam3.1 aminoacylation ribozyme variant]
self-aminoacylation (biotinyl-Trp-oxazolone): 3.96
self-aminoacylation (biotinyl-Phe-oxazolone): 11

CUACUUCAAUCAAUCGGUCUC [Fam1A.1 aminoacylation ribozyme variant]
self-aminoacylation (biotinyl-Trp-oxazolone): 14.9
self-aminoacylation (biotinyl-Phe-oxazolone): 25.9

UCACACUUCAAGCAAUCGGCC [Fam1B.1 aminoacylation ribozyme variant]
self-aminoacylation (biotinyl-Trp-oxazolone): 4
self-aminoacylation (biotinyl-Phe-oxazolone): 4.64

CCACACUUCAACAAAUCGGUC [Fam1B.1 aminoacylation ribozyme variant]
self-aminoacylation (biotinyl-Trp-oxazolone): 7.95
self-aminoacylation (biotinyl-Phe-oxazolone): 11.5

CGACACUUCACGCAAUCGGUC [Fam1B.1 aminoacylation ribozyme variant]
self-aminoacylation (biotinyl-Leu-oxazolone): 2.15
self-aminoacylation (biotinyl-Phe-oxazolone): 4.13

AAACACUUCAAGCAAUCGGUC [Fam1B.1 aminoacylation ribozyme variant]
self-aminoacylation (biotinyl-Trp-oxazolone): 11.9
self-aminoacylation (biotinyl-Phe-oxazolone): 18

AUUCACCUACGUCGUCGGGUG [Fam2.2 aminoacylation ribozyme variant]
self-aminoacylation (biotinyl-Leu-oxazolone): 2.38
self-aminoacylation (biotinyl-Phe-oxazolone): 11.5

CCAAUCUUCAAGCAAUCGGUC [Fam1B.1 aminoacylation ribozyme variant]
self-aminoacylation (biotinyl-Trp-oxazolone): 10.7
self-aminoacylation (biotinyl-Phe-oxazolone): 18.1

GUACUUCAAACAAUCAGUCUG [Fam1A.1 aminoacylation ribozyme variant]
self-aminoacylation (biotinyl-Trp-oxazolone): 10.3
self-aminoacylation (biotinyl-Phe-oxazolone): 19.3

AAGUUCGCUAAUAGUCGUAAG [Fam3.1 aminoacylation ribozyme variant]
self-aminoacylation (biotinyl-Trp-oxazolone): 4.33
self-aminoacylation (biotinyl-Phe-oxazolone): 13.7

CUACGUCAAACAAUCGGUGUG [Fam1A.1 aminoacylation ribozyme variant]
self-aminoacylation (biotinyl-Leu-oxazolone): 2.02

AAGUUGGCUAAUAGUCGCAAA [Fam3.1 aminoacylation ribozyme variant]
self-aminoacylation (biotinyl-Trp-oxazolone): 2.03
self-aminoacylation (biotinyl-Phe-oxazolone): 2.83

AUACACCUAGGUCGUCGGGUG [Fam2.2 aminoacylation ribozyme variant]
self-aminoacylation (biotinyl-Leu-oxazolone): 2.55
self-aminoacylation (biotinyl-Phe-oxazolone): 6.55

CGACUUCAAAUAAUCGGUCUG [Fam1A.1 aminoacylation ribozyme variant]
self-aminoacylation (biotinyl-Trp-oxazolone): 14.6
self-aminoacylation (biotinyl-Phe-oxazolone): 16.2

CCACUCUUCAAGCAAUCAGUC [Fam1B.1 aminoacylation ribozyme variant]
self-aminoacylation (biotinyl-Trp-oxazolone): 2.76
self-aminoacylation (biotinyl-Phe-oxazolone): 8.2

UAGUUUGCUAACAGUCGCAAG [Fam3.1 aminoacylation ribozyme variant]
self-aminoacylation (biotinyl-Trp-oxazolone): 3.08
self-aminoacylation (biotinyl-Phe-oxazolone): 5.84

ACACACUUCAAGCCAUCGGUC [Fam1B.1 aminoacylation ribozyme variant]
self-aminoacylation (biotinyl-Leu-oxazolone): 2.11
self-aminoacylation (biotinyl-Phe-oxazolone): 2.41

CUACCUCCAACAAUCGGUCUG [Fam1A.1 aminoacylation ribozyme variant]
self-aminoacylation (biotinyl-Trp-oxazolone): 3.94
self-aminoacylation (biotinyl-Phe-oxazolone): 4.71

ACACACUUCAAGUAAUCGGUC [Fam1B.1 aminoacylation ribozyme variant]
self-aminoacylation (biotinyl-Trp-oxazolone): 6
self-aminoacylation (biotinyl-Phe-oxazolone): 7.88

CUACUUCAAGCAAUCGGUCUC [Fam1A.1 aminoacylation ribozyme variant]
self-aminoacylation (biotinyl-Trp-oxazolone): 6.61
self-aminoacylation (biotinyl-Phe-oxazolone): 11.4

AAGUUAGCUAAUAGUCGCGAG [Fam3.1 aminoacylation ribozyme variant]
self-aminoacylation (biotinyl-Trp-oxazolone): 2.24
self-aminoacylation (biotinyl-Leu-oxazolone): 2.09
self-aminoacylation (biotinyl-Phe-oxazolone): 2.29

AUUCACCUAGGUCAUCUGGCG [Fam2.2 aminoacylation ribozyme variant]
self-aminoacylation (biotinyl-Leu-oxazolone): 2.88

CGAGACUUCAAGCAAUCGGUC [Fam1B.1 aminoacylation ribozyme variant]
self-aminoacylation (biotinyl-Trp-oxazolone): 4.16
self-aminoacylation (biotinyl-Phe-oxazolone): 5.77

CAAAACUUCAAGCAAUCGGUC [Fam1B.1 aminoacylation ribozyme variant]
self-aminoacylation (biotinyl-Trp-oxazolone): 10.6
self-aminoacylation (biotinyl-Phe-oxazolone): 15.2

GUACUUCAAUCAAUCGGUCUG [Fam1A.1 aminoacylation ribozyme variant]
self-aminoacylation (biotinyl-Trp-oxazolone): 19.4
self-aminoacylation (biotinyl-Leu-oxazolone): 2.06
self-aminoacylation (biotinyl-Phe-oxazolone): 21.9

CUACUUCAAUCAAUCGGUCAG [Fam1A.1 aminoacylation ribozyme variant]
self-aminoacylation (biotinyl-Trp-oxazolone): 3.51
self-aminoacylation (biotinyl-Phe-oxazolone): 7.4

CUACUUCAACCAAUCGGUCUA [Fam1A.1 aminoacylation ribozyme variant]
self-aminoacylation (biotinyl-Trp-oxazolone): 7
self-aminoacylation (biotinyl-Phe-oxazolone): 11.9
